Patent US20080020377A1

Legend:
[1] = molecular target: Tet repressor protein from class B [TetR(B)] (Escherichia coli) (UniProt P04483); assay: cell-based or functional assay
TetR(B/D)188-208 = TetR(B/D)188-208 (UniProt P0ACT4); assay: cell-based or functional assay

Substance	factor of induction of β-galactosidase activity at 60 µM IPTG [1] [fold]	induction of β-galactosidase activity against the C-terminal fusion TrxA-pepBs1 (fold higher than the C-terminal fusion) [1]	β-galactosidase activity at 60 µM IPTG (TetR(B/D)188-208) [fold]
TrxA-pepBs1 (C-terminal fusion of pepBs1 to Escherichia coli thioredoxin A) (from UniProt P0AA25 2-109)	14	–	–
PepBs1-TrxA (N-terminal fusion of pepBs1 to Escherichia coli thioredoxin A) (from UniProt P0AA25 2-109)	40	3	–
SbmC(C)-pepBs1 fusion protein (from UniProt P33012 1-157)	–	–	4
